Experiment [1] deals with polySIM (protein consisting of 10 SIMs derived from the PIASx protein).
Experiment [2] has as its target small ubiquitin-like modifier protein 1 (SUMO1) domain, wild type (UniProt P63165). As to the kind of experiment: static light scattering (second virial coefficient A2); pH 6.5; 25 °C; A2 from the slope of scattering intensity versus mass concentration; weak self-association of a single domain.
For experiment [3] the target is unchanged. As to the kind of experiment: static light scattering (second virial coefficient A2); pH 8.0; 25 °C; 20 mM HEPES, 150 mM KCl, 1 mM MgCl2, 1 mM DTT, 1 mM EGTA; A2 from the slope of scattering intensity versus concentration.
Experiment [4] addresses T1, small ubiquitin-like modifier protein 1 (SUMO1) domain, wild type (UniProt P63165 1-97).
T1 construct: SUMO1, single domain; also called WT SUMO; WT SUMO1; source: BL21(DE3) T1R cells, purified (Ni-NTA, TEV cleavage, Source15Q, Superdex200); not shown: His8, N-terminal, cleaved
As to the kind of experiment: ITC; 50–100 μM SIM peptide in the cell, SUMO in the syringe; 25 °C; 20 mM HEPES (pH 7.0 or 8.0) or 20 mM MES (pH 6.5), 150 mM KCl, 1 mM MgCl2, 1 mM DTT, 1 mM EGTA; 1:1 binding model. The note with it: both partners purified. A general note: Isothermal titration calorimetry measures the heat released or taken up as one component is titrated into another.

T1 sequence (P63165 1-97): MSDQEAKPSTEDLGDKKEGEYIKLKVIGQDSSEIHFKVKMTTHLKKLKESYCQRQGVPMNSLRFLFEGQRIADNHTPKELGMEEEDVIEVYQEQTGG

In experiment [1], “polySUMO (synthetic protein consisting of five SUMO domains)” had a phase-separation threshold (module concentration, equimolar modules) by turbidity at 340 nm, pH 6 of 75 μM; a phase-separation threshold (module concentration, equimolar modules) by turbidity at 340 nm, pH 6.5 of 100 μM; a phase-separation threshold (module concentration, equimolar modules) by turbidity at 340 nm, pH 7 of 150 μM; a phase-separation threshold (module concentration, equimolar modules) by turbidity at 340 nm, pH 8 of 300 μM.

For “small ubiquitin-like modifier protein 1 (SUMO1) domain, wild type (from UniProt P63165 1-97) (natural protein)”, the values for the A2 (second virial coefficient) in experiment [2] and in experiment [3] were -0.00012 mol mL g^–2 and 0.00012 mol mL g^–2, respectively.

B1: SUMO interaction motif (SIM) peptide derived from the PIASx protein (peptide)
chain: KVDVIDLTIESSSDEEEDPPAKR
B1 showed a Kd in experiment [4] of 15 to 20 µM.

Broadly, the Kd is the constant that tells how readily two partners part at equilibrium.

These data come from paper PMC10859935, “Surface Charge Can Modulate Phase Separation of Multidomain Proteins” (Journal of the American Chemical Society, 2024).
